14 substances from IntAct's records for PubMed 26258305 can be followed below.

Among the targets are ti11a_arath TIFY11A (UniProt Q9LDU5); tif7_arath TIFY7 (UniProt Q8W4J8); tif5a_arath TIFY5A (UniProt Q8LBM2); ti11b_arath TIFY11B (UniProt Q9C9E3); tif9_arath TIFY9 (UniProt Q93ZM9); tif6a_arath TIFY6A (UniProt Q58G47); tif3b_arath TIFY3B (UniProt Q9C5K8); ti10b_arath TIFY10B (UniProt Q9S7M2); tif3a_arath TIFY3A (UniProt Q9M246); tif6b_arath TIFY6B (UniProt Q9LVI4); ti10a_arath TIFY10A (UniProt Q9LMA8).

Sequence of tif3b_arath TIFY3B (Q9C5K8 whole entry): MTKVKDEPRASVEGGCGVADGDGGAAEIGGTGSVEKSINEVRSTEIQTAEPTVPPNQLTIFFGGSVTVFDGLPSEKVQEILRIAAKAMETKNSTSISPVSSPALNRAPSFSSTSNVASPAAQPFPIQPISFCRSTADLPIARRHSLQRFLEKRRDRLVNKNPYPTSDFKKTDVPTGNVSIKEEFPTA
Sequence of tif9_arath TIFY9 (Q93ZM9 whole entry): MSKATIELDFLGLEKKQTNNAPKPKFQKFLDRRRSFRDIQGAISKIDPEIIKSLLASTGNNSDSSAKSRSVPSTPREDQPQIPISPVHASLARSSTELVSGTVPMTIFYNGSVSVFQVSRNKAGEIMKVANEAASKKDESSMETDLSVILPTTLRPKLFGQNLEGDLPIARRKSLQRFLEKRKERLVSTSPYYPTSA
Sequence of Transcription factor MYC3 (Arabidopsis thaliana (Mouse-ear cress)), Q9FIP9 F151A (Q9FIP9 whole entry F151A): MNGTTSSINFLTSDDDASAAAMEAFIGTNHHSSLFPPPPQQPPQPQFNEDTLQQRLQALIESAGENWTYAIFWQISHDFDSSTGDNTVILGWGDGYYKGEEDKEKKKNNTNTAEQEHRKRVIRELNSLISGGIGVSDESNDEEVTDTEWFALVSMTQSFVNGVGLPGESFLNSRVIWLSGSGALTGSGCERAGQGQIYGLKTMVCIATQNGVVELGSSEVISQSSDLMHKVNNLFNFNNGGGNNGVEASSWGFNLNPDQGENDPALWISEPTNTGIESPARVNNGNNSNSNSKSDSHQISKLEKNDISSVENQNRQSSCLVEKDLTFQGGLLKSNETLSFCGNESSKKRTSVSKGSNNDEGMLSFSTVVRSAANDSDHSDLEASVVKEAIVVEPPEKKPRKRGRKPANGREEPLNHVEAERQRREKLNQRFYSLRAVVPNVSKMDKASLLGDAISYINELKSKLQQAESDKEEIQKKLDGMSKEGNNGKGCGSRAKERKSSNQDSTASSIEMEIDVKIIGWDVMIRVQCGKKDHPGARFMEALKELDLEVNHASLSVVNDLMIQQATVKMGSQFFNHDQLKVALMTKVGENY
Sequence of Transcription factor MYC3 (Arabidopsis thaliana (Mouse-ear cress)), Q9FIP9 L152A;M155A (Q9FIP9 whole entry L152A/M155A): as the sequence (Q9FIP9 whole entry F151A) above, with A151F, L152A, M155A counted along it
Sequence of ti10b_arath TIFY10B (Q9S7M2 whole entry): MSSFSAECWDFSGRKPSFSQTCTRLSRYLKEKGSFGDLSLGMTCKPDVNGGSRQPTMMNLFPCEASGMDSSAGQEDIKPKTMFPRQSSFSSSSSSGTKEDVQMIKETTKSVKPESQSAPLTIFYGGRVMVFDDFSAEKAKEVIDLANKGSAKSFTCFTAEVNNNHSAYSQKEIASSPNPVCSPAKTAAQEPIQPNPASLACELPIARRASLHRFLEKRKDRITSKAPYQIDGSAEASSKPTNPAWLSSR
Sequence of ti11b_arath TIFY11B (Q9C9E3 whole entry): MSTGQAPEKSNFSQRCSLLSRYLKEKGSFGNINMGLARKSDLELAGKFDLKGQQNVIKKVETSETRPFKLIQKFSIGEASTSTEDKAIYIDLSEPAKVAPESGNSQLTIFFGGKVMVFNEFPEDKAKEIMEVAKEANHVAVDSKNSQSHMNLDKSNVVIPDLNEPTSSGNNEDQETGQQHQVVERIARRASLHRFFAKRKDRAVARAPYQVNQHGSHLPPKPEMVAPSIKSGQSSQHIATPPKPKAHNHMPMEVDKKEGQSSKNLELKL
Sequence of ti11a_arath TIFY11A (Q9LDU5 whole entry): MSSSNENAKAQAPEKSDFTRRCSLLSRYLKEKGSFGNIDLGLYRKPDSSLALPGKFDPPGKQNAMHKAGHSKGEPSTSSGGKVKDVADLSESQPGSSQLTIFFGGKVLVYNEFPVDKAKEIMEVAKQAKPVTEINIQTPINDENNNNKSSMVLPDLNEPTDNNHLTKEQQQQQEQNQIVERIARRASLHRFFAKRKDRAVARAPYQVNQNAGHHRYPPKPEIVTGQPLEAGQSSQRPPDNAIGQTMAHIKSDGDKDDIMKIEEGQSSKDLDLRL
Sequence of tif6b_arath TIFY6B (Q9LVI4 whole entry): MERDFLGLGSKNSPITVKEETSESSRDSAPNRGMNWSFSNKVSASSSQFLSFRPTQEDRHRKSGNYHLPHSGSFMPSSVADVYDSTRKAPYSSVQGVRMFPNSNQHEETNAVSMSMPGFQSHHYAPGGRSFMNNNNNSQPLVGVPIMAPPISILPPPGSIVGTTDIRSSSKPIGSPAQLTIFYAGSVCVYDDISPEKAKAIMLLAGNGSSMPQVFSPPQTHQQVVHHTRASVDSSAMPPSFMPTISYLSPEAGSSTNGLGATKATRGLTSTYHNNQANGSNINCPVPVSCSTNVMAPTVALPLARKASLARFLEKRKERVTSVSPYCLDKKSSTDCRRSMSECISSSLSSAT
Sequence of tif6a_arath TIFY6A (Q58G47 whole entry): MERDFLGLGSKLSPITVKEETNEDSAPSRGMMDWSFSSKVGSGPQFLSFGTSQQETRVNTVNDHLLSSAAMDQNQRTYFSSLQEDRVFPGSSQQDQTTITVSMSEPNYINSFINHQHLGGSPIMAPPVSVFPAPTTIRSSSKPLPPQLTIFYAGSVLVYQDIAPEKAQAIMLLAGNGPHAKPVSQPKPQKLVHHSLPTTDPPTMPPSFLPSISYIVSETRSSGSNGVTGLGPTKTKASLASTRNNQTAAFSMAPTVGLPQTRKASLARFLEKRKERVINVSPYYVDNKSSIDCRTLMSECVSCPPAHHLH
Sequence of tif5a_arath TIFY5A (Q8LBM2 whole entry): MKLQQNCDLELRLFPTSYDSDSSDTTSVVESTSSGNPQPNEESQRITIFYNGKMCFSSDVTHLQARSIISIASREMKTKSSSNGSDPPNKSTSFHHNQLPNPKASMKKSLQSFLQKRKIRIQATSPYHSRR
Sequence of Transcription factor MYC3 (Arabidopsis thaliana (Mouse-ear cress)), Q9FIP9 L152A (Q9FIP9 whole entry L152A): as the sequence (Q9FIP9 whole entry F151A) above, with A151F, L152A counted along it
Sequence of tif7_arath TIFY7 (Q8W4J8 whole entry): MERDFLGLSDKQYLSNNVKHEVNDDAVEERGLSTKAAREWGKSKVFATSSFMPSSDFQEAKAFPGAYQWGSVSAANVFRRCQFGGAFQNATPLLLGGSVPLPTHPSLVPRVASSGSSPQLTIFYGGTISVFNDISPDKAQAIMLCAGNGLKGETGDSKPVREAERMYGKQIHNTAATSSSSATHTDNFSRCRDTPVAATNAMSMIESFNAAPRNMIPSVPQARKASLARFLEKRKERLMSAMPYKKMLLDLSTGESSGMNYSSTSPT
Sequence of ti10a_arath TIFY10A (Q9LMA8 whole entry): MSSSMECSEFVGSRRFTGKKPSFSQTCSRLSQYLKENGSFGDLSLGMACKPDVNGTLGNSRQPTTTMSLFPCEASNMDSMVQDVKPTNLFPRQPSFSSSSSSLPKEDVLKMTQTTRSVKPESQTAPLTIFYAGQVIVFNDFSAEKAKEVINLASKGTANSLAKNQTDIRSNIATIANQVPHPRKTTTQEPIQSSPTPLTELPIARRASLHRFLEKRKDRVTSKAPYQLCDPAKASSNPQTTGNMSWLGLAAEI
Sequence of Transcription factor MYC3 (Arabidopsis thaliana (Mouse-ear cress)), Q9FIP9 F151A;L152A;M155A (Q9FIP9 whole entry F151A/L152A/M155A): as the sequence (Q9FIP9 whole entry F151A) above, with L152A, M155A counted along it

“Transcription factor MYC3 (Arabidopsis thaliana (Mouse-ear cress)), Q9FIP9 F151A”: the “effect of a mutation on the interaction” value with ti11a_arath TIFY11A was “disrupting interaction strength”; in the assay with tif7_arath TIFY7 it was “decreasing interaction strength”; with tif5a_arath TIFY5A, “decreasing interaction strength”; with ti11b_arath TIFY11B it was “decreasing interaction strength”; with tif9_arath TIFY9, “decreasing interaction strength”; in the assay with tif6a_arath TIFY6A, “disrupting interaction strength”. In addition, the “effect of a mutation on the interaction” value in the assay with tif3b_arath TIFY3B was “disrupting interaction strength”; in the assay with ti10b_arath TIFY10B it was “decreasing interaction strength”; with tif3a_arath TIFY3A it was “decreasing interaction strength”; with tif6b_arath TIFY6B it was “disrupting interaction strength”; in the assay with ti10a_arath TIFY10A it was “decreasing interaction strength”.
As for “Transcription factor MYC3 (Arabidopsis thaliana (Mouse-ear cress)), Q9FIP9 Y97A”, the “effect of a mutation on the interaction” value in the assay with tif6a_arath TIFY6A is on record as “disrupting interaction strength”.
For “Transcription factor MYC3 (Arabidopsis thaliana (Mouse-ear cress)), Q9FIP9 W92A;Y97A”, the “effect of a mutation on the interaction” value in the assay with ti11a_arath TIFY11A is on record as “disrupting interaction strength”; with tif7_arath TIFY7, “disrupting interaction strength”; with tif5a_arath TIFY5A, “decreasing interaction strength”; with ti11b_arath TIFY11B, “disrupting interaction strength”; in the assay with tif9_arath TIFY9, “decreasing interaction strength”; with tif6a_arath TIFY6A, “disrupting interaction strength”. Moreover, the “effect of a mutation on the interaction” value is recorded as “disrupting interaction strength” in the assay with tif3b_arath TIFY3B; “disrupting interaction strength” with ti10b_arath TIFY10B; “decreasing interaction strength” with tif3a_arath TIFY3A; “disrupting interaction strength” in the assay with tif6b_arath TIFY6B; “decreasing interaction strength” in the assay with ti10a_arath TIFY10A.
Regarding “Transcription factor MYC3 (Arabidopsis thaliana (Mouse-ear cress)), Q9FIP9 W92A;D94A”, in the assay with tif6a_arath TIFY6A, the “effect of a mutation on the interaction” value was “disrupting interaction strength”.
Turning to “Transcription factor MYC3 (Arabidopsis thaliana (Mouse-ear cress)), Q9FIP9 F151A;L152A;M155A”, the “effect of a mutation on the interaction” value with ti11a_arath TIFY11A, with tif7_arath TIFY7, with tif5a_arath TIFY5A, in the assay with ti11b_arath TIFY11B, with tif9_arath TIFY9 and with tif6a_arath TIFY6A was “disrupting interaction strength” throughout. Besides, the “effect of a mutation on the interaction” value with tif3b_arath TIFY3B, in the assay with ti10b_arath TIFY10B, with tif3a_arath TIFY3A, in the assay with tif6b_arath TIFY6B and with ti10a_arath TIFY10A was “disrupting interaction strength” each time.
Take “Transcription factor MYC3 (Arabidopsis thaliana (Mouse-ear cress)), Q9FIP9 D94A”: in the assay with tif6a_arath TIFY6A, the “effect of a mutation on the interaction” value is on record as “disrupting interaction strength”.
“Transcription factor MYC3 (Arabidopsis thaliana (Mouse-ear cress)), Q9FIP9 M155A”: the “effect of a mutation on the interaction” value is “decreasing interaction strength” with ti11a_arath TIFY11A; “disrupting interaction strength” with tif7_arath TIFY7; “decreasing interaction strength” in the assay with ti11b_arath TIFY11B; “disrupting interaction strength” with tif6a_arath TIFY6A; “disrupting interaction strength” with tif3b_arath TIFY3B; “disrupting interaction strength” with tif6b_arath TIFY6B.
For the substance “Transcription factor MYC3 (Arabidopsis thaliana (Mouse-ear cress)), Q9FIP9 D94N”, the “effect of a mutation on the interaction” value with tif7_arath TIFY7, in the assay with tif6a_arath TIFY6A and with tif6b_arath TIFY6B was “disrupting interaction strength” throughout.
Turning to “Transcription factor MYC3 (Arabidopsis thaliana (Mouse-ear cress)), Q9FIP9 F151A;M155A”, the “effect of a mutation on the interaction” value is “disrupting interaction strength” with ti11a_arath TIFY11A; “disrupting interaction strength” with tif7_arath TIFY7; “disrupting interaction strength” in the assay with tif5a_arath TIFY5A; “decreasing interaction strength” in the assay with ti11b_arath TIFY11B; “decreasing interaction strength” in the assay with tif9_arath TIFY9; “disrupting interaction strength” with tif6a_arath TIFY6A. In addition, the “effect of a mutation on the interaction” value in the assay with tif3b_arath TIFY3B is “disrupting interaction strength”; with ti10b_arath TIFY10B, “disrupting interaction strength”; in the assay with tif3a_arath TIFY3A, “disrupting interaction strength”; with tif6b_arath TIFY6B it was “disrupting interaction strength”; in the assay with ti10a_arath TIFY10A it was “decreasing interaction strength”.
“Transcription factor MYC3 (Arabidopsis thaliana (Mouse-ear cress)), Q9FIP9 L152A;M155A”: the “effect of a mutation on the interaction” value in the assay with ti11a_arath TIFY11A, with tif7_arath TIFY7, with tif5a_arath TIFY5A, with ti11b_arath TIFY11B, with tif9_arath TIFY9 and with tif6a_arath TIFY6A was “disrupting interaction strength” in each case. Besides, the “effect of a mutation on the interaction” value with tif3b_arath TIFY3B, in the assay with ti10b_arath TIFY10B, with tif3a_arath TIFY3A, with tif6b_arath TIFY6B and with ti10a_arath TIFY10A was “disrupting interaction strength” in each case.
Regarding “Transcription factor MYC3 (Arabidopsis thaliana (Mouse-ear cress)), Q9FIP9 W92A;D94A;Y97A”, the “effect of a mutation on the interaction” value in the assay with ti11a_arath TIFY11A, with tif7_arath TIFY7, in the assay with tif5a_arath TIFY5A, with ti11b_arath TIFY11B, with tif9_arath TIFY9 and with tif6a_arath TIFY6A was “disrupting interaction strength” each time. Further, the “effect of a mutation on the interaction” value in the assay with tif3b_arath TIFY3B, with ti10b_arath TIFY10B, in the assay with tif3a_arath TIFY3A, with tif6b_arath TIFY6B and with ti10a_arath TIFY10A was “disrupting interaction strength” throughout.
On to “Transcription factor MYC3 (Arabidopsis thaliana (Mouse-ear cress)), Q9FIP9 D94A;Y97A”, for which the “effect of a mutation on the interaction” value in the assay with ti11a_arath TIFY11A, with tif7_arath TIFY7, in the assay with ti11b_arath TIFY11B, in the assay with tif6a_arath TIFY6A and in the assay with tif6b_arath TIFY6B was “decreasing interaction strength” in each case.
Consider “Transcription factor MYC3 (Arabidopsis thaliana (Mouse-ear cress)), Q9FIP9 L152A”, for which the “effect of a mutation on the interaction” value with ti11a_arath TIFY11A is listed as “disrupting interaction strength”; with tif7_arath TIFY7, “disrupting interaction strength”; with ti11b_arath TIFY11B, “decreasing interaction strength”; with tif9_arath TIFY9 it was “decreasing interaction strength”; with tif6a_arath TIFY6A, “disrupting interaction strength”; with tif3b_arath TIFY3B, “disrupting interaction strength”. The “effect of a mutation on the interaction” value with ti10b_arath TIFY10B is on record as “decreasing interaction strength”; in the assay with tif3a_arath TIFY3A it was “decreasing interaction strength”; with tif6b_arath TIFY6B, “disrupting interaction strength”; in the assay with ti10a_arath TIFY10A it was “decreasing interaction strength”.
For the substance “Transcription factor MYC3 (Arabidopsis thaliana (Mouse-ear cress)), Q9FIP9 W92A”, the “effect of a mutation on the interaction” value with tif6a_arath TIFY6A is “disrupting interaction strength”.
